# Measurements taken from the supplement of paper PMC9112550, “Optimization of the antimicrobial peptide Bac7 by deep mutational scanning” (BMC Biology, 2022).
# Tested on: Escherichia coli TOP10
# Test: shrunken log2 fold change of peptide-encoding DNA abundance (4.5 h post-induction vs induction); higher = less antimicrobial activity (less host growth inhibition)
# Conditions: time post-induction: 4.5 h; library: site-saturation at positions 5, 18, 19, 20
# 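Further: peptides expressed intracellularly from a pBAD plasmid library in pooled LB shake-flask culture, induced with 0.3% L-arabinose, DNA abundance read by NGS, three biological replicates, DESeq2 with apeglm shrinkage.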
row,Sequence,shrunken log2 fold change
1,RRIRMRPPRLPRPRPRPLFEPRP,0.633
2,RRIRHRPPRLPRPRPRPGDNPRP,-0.0143
3,RRIRARPPRLPRPRPRPLVPPRP,0.125
4,RRIRTRPPRLPRPRPRPRLGPRP,0.169
5,RRIRTRPPRLPRPRPRPMLMPRP,-0.248
6,RRIRVRPPRLPRPRPRPMNIPRP,-0.604
7,RRIRPRPPRLPRPRPRPAFTPRP,-0.0147
8,RRIRNRPPRLPRPRPRPCVNPRP,-0.282
9,RRIRNRPPRLPRPRPRPENRPRP,-0.0205
10,RRIRRRPPRLPRPRPRPNTRPRP,0.162
11,RRIRTRPPRLPRPRPRPNVHPRP,-0.637
12,RRIRRRPPRLPRPRPRPSCLPRP,-0.172
13,RRIRMRPPRLPRPRPRPGQQPRP,1.34
14,RRIRLRPPRLPRPRPRPYCVPRP,-0.622
15,RRIRLRPPRLPRPRPRPDEYPRP,-0.000921
16,RRIRMRPPRLPRPRPRPDCLPRP,1.54
17,RRIRHRPPRLPRPRPRPDIFPRP,-0.223
18,RRIRERPPRLPRPRPRPMSYPRP,-0.00931
19,RRIRHRPPRLPRPRPRPWDGPRP,-0.0969
20,RRIRNRPPRLPRPRPRPTTRPRP,0.0475
21,RRIRIRPPRLPRPRPRPGNWPRP,-0.35
22,RRIRWRPPRLPRPRPRPRHRPRP,0.138
23,RRIRWRPPRLPRPRPRPAYQPRP,0.106
24,RRIRNRPPRLPRPRPRPPCCPRP,0.123
25,RRIRHRPPRLPRPRPRPLIVPRP,-0.314

row,Sequence,shrunken log2 fold change
1,RRIRIRPPRLPRPRPRPSYLPRP,-0.831
2,RRIRGRPPRLPRPRPRPQEWPRP,0.12
3,RRIRGRPPRLPRPRPRPWQQPRP,0.0543
4,RRIRYRPPRLPRPRPRPNTTPRP,-0.114
5,RRIRKRPPRLPRPRPRPFVGPRP,-0.0257
6,RRIRTRPPRLPRPRPRPVMFPRP,0.32
7,RRIRKRPPRLPRPRPRPQFEPRP,0.177
8,RRIRLRPPRLPRPRPRPDRLPRP,-0.0156
9,RRIRQRPPRLPRPRPRPMVNPRP,-0.2
10,RRIRLRPPRLPRPRPRPGYAPRP,0.119
11,RRIRTRPPRLPRPRPRPTNIPRP,-0.519
12,RRIRIRPPRLPRPRPRPDDCPRP,-0.271
13,RRIRWRPPRLPRPRPRPTSYPRP,-0.103
14,RRIRVRPPRLPRPRPRPLTFPRP,-0.271
15,RRIRGRPPRLPRPRPRPMRFPRP,0.112
16,RRIRARPPRLPRPRPRPTLSPRP,0.801
17,RRIRHRPPRLPRPRPRPMSRPRP,-0.0252
18,RRIRLRPPRLPRPRPRPDPVPRP,-0.0275
19,RRIRSRPPRLPRPRPRPDYWPRP,0.0977
20,RRIRRRPPRLPRPRPRPPKCPRP,0.423
21,RRIRNRPPRLPRPRPRPASWPRP,0.369
22,RRIRYRPPRLPRPRPRPETSPRP,0.014
23,RRIRVRPPRLPRPRPRPGEAPRP,0.474
24,RRIRQRPPRLPRPRPRPCVLPRP,-0.298
25,RRIRDRPPRLPRPRPRPMTTPRP,-0.0624

row,Sequence,shrunken log2 fold change
1,RRIRDRPPRLPRPRPRPVNAPRP,0.188
2,RRIRYRPPRLPRPRPRPLRCPRP,0.0617
3,RRIRDRPPRLPRPRPRPRFTPRP,0.21
4,RRIRWRPPRLPRPRPRPEISPRP,-0.161
5,RRIRDRPPRLPRPRPRPGYIPRP,-0.304
6,RRIRQRPPRLPRPRPRPCWTPRP,-0.0267
7,RRIRNRPPRLPRPRPRPNCAPRP,-0.123
8,RRIRVRPPRLPRPRPRPVENPRP,0.02
9,RRIRARPPRLPRPRPRPIMAPRP,0.0923
10,RRIRKRPPRLPRPRPRPIWNPRP,-0.0253
11,RRIRVRPPRLPRPRPRPIWIPRP,0.0696
12,RRIRGRPPRLPRPRPRPSYWPRP,0.119
13,RRIRTRPPRLPRPRPRPSYHPRP,-0.833
14,RRIRRRPPRLPRPRPRPQHRPRP,0.266
15,RRIRGRPPRLPRPRPRPMAFPRP,0.572
16,RRIRMRPPRLPRPRPRPAWVPRP,0.375
17,RRIRSRPPRLPRPRPRPELAPRP,0.929
18,RRIRRRPPRLPRPRPRPFYIPRP,-0.039
19,RRIRGRPPRLPRPRPRPQFEPRP,0.156
20,RRIRPRPPRLPRPRPRPLVMPRP,0.0377
21,RRIRIRPPRLPRPRPRPSRAPRP,-0.212
22,RRIRDRPPRLPRPRPRPFTGPRP,-0.267
23,RRIRQRPPRLPRPRPRPDACPRP,0.0301
24,RRIRVRPPRLPRPRPRPREIPRP,0.087
25,RRIRIRPPRLPRPRPRPYWVPRP,0.0603

row,Sequence,shrunken log2 fold change
1,RRIRNRPPRLPRPRPRPMCQPRP,-0.0153
2,RRIRYRPPRLPRPRPRPDFNPRP,-1.62
3,RRIRNRPPRLPRPRPRPICEPRP,0.0602
4,RRIRMRPPRLPRPRPRPTLMPRP,0.0126
5,RRIRNRPPRLPRPRPRPCWYPRP,-0.0865
6,RRIRARPPRLPRPRPRPYVSPRP,-0.0383
7,RRIRHRPPRLPRPRPRPGDSPRP,-0.53
8,RRIRWRPPRLPRPRPRPAMFPRP,0.324
9,RRIRKRPPRLPRPRPRPKFEPRP,-0.0585
10,RRIRERPPRLPRPRPRPMLCPRP,0.05
11,RRIRWRPPRLPRPRPRPYVDPRP,-0.171
12,RRIRSRPPRLPRPRPRPAAWPRP,0.226
13,RRIRERPPRLPRPRPRPDPKPRP,0.00358
14,RRIRTRPPRLPRPRPRPNHPPRP,0.0542
15,RRIRLRPPRLPRPRPRPGSKPRP,-0.559
16,RRIRPRPPRLPRPRPRPRVTPRP,0.326
17,RRIRCRPPRLPRPRPRPSCDPRP,-0.0533
18,RRIRERPPRLPRPRPRPKETPRP,0.0319
19,RRIRYRPPRLPRPRPRPFTDPRP,-0.583
20,RRIRYRPPRLPRPRPRPKARPRP,0.0182
21,RRIRMRPPRLPRPRPRPIKAPRP,0.0335
22,RRIRFRPPRLPRPRPRPENKPRP,-0.422
23,RRIRRRPPRLPRPRPRPVKAPRP,0.148
24,RRIRIRPPRLPRPRPRPCDIPRP,-0.416
25,RRIRCRPPRLPRPRPRPGMCPRP,0.125

row,Sequence,shrunken log2 fold change
1,RRIRNRPPRLPRPRPRPSKKPRP,-0.0392
2,RRIRKRPPRLPRPRPRPAVGPRP,0.472
3,RRIRHRPPRLPRPRPRPGYSPRP,0.0976
4,RRIRARPPRLPRPRPRPHLKPRP,0.01
5,RRIRFRPPRLPRPRPRPKYWPRP,-0.176
6,RRIRSRPPRLPRPRPRPCMPPRP,-0.375
7,RRIRHRPPRLPRPRPRPTNEPRP,-0.512
8,RRIRVRPPRLPRPRPRPITEPRP,-0.0116
9,RRIRKRPPRLPRPRPRPPPKPRP,1.2
10,RRIRRRPPRLPRPRPRPWGYPRP,-0.275
11,RRIRARPPRLPRPRPRPHPCPRP,0.206
12,RRIRPRPPRLPRPRPRPFAKPRP,0.0716
13,RRIRPRPPRLPRPRPRPSRDPRP,-0.109
14,RRIRSRPPRLPRPRPRPGGEPRP,0.585
15,RRIRYRPPRLPRPRPRPKWLPRP,-0.221
16,RRIRGRPPRLPRPRPRPVWLPRP,0.649
17,RRIRLRPPRLPRPRPRPARFPRP,0.0674
18,RRIRGRPPRLPRPRPRPISDPRP,0.385
19,RRIRERPPRLPRPRPRPRALPRP,0.0317
20,RRIRKRPPRLPRPRPRPCPHPRP,0.0793
21,RRIRARPPRLPRPRPRPQSTPRP,0.0836
22,RRIRVRPPRLPRPRPRPRDSPRP,-0.188
23,RRIRGRPPRLPRPRPRPVDNPRP,0.408
24,RRIRDRPPRLPRPRPRPQVQPRP,-0.0379
25,RRIRPRPPRLPRPRPRPMDAPRP,-0.128

row,Sequence,shrunken log2 fold change
1,RRIRIRPPRLPRPRPRPQDNPRP,-0.954
2,RRIRWRPPRLPRPRPRPNDAPRP,0.0398
3,RRIRYRPPRLPRPRPRPHRPPRP,0.0424
4,RRIRQRPPRLPRPRPRPDQSPRP,-0.222
5,RRIRPRPPRLPRPRPRPHCNPRP,-0.52
6,RRIRNRPPRLPRPRPRPGKSPRP,-0.0101
7,RRIRYRPPRLPRPRPRPNRKPRP,-0.284
8,RRIRRRPPRLPRPRPRPTMQPRP,0.275
9,RRIRRRPPRLPRPRPRPYFYPRP,-0.683
10,RRIRIRPPRLPRPRPRPKHYPRP,-0.44
11,RRIRGRPPRLPRPRPRPERNPRP,0.855
12,RRIRERPPRLPRPRPRPFTCPRP,-0.00783
13,RRIRNRPPRLPRPRPRPFCWPRP,0.0104
14,RRIRLRPPRLPRPRPRPMFPPRP,-0.281
15,RRIRCRPPRLPRPRPRPRGEPRP,0.435
16,RRIRKRPPRLPRPRPRPCECPRP,0.62
17,RRIRPRPPRLPRPRPRPWIDPRP,-0.35
18,RRIRARPPRLPRPRPRPFTFPRP,-0.0365
19,RRIRWRPPRLPRPRPRPEAEPRP,1.53
20,RRIRMRPPRLPRPRPRPVEIPRP,0.00438
21,RRIRERPPRLPRPRPRPEHLPRP,0.0163
22,RRIRKRPPRLPRPRPRPQIKPRP,0.0963
23,RRIRSRPPRLPRPRPRPEDNPRP,0.24
24,RRIRCRPPRLPRPRPRPPRAPRP,0.934
25,RRIRQRPPRLPRPRPRPVHYPRP,-0.0228
